Measurements reported in IntAct's records for PubMed 18627465.

B1: Complement factor H (Homo sapiens), P08603 (parent)
chain: MRLLAKIICLMLWAICVAEDCNELPPRRNTEILTGSWSDQTYPEGTQAIYKCRPGYRSLGNVIMVCRKGEWVALNPLRKCQKRPCGHPGDTPFGTFTLTGGNVFEYGVKAVYTCNEGYQLLGEINYRECDTDGWTNDIPICEVVKCLPVTAPENGKIVSSAMEPDREYHFGQAVRFVCNSGYKIEGDEEMHCSDDGFWSKEKPKCVEISCKSPDVINGSPISQKIIYKENERFQYKCNMGYEYSERGDAVCTESGWRPLPSCEEKSCDNPYIPNGDYSPLRIKHRTGDEITYQCRNGFYPATRGNTAKCTSTGWIPAPRCTLKPCDYPDIKHGGLYHENMRRPYFPVAVGKYYSYYCDEHFETPSGSYWDHIHCTQDGWSPAVPCLRKCYFPYLENGYNQNYGRKFVQGKSIDVACHPGYALPKAQTTVTCMENGWSPTPRCIRVKTCSKSSIDIENGFISESQYTYALKEKAKYQCKLGYVTADGETSGSITCGKDGWSAQPTCIKSCDIPVFMNARTKNDFTWFKLNDTLDYECHDGYESNTGSTTGSIVCGYNGWSDLPICYERECELPKIDVHLVPDRKKDQYKVGEVLKFSCKPGFTIVGPNSVQCYHFGLSPDLPICKEQVQSCGPPPELLNGNVKEKTKEEYGHSEVVEYYCNPRFLMKGPNKIQCVDGEWTTLPVCIVEESTCGDIPELEHGWAQLSSPPYYYGDSVEFNCSESFTMIGHRSITCIHGVWTQLPQCVAIDKLKKCKSSNLIILEEHLKNKKEFDHNSNIRYRCRGKEGWIHTVCINGRWDPEVNCSMAQIQLCPPPPQIPNSHNMTTTLNYRDGEKVSVLCQENYLIQEGEEITCKDGRWQSIPLCVEKIPCSQPPQIEHGTINSSRSSQESYAHGTKLSYTCEGGFRISEENETTCYMGKWSSPPQCEGLPCKSPPEISHGVVAHMSDSYQYGEEVTYKCFEGFGIDGPAIAKCLGEKWSHPPSCIKTDCLSLPSFENAIPMGEKKDVYKAGEQVTYTCATYYKMDGASNVTCINSRWTGRPTCRDTSCVNPPTVQNAYIVSRQMSKYPSGERVRYQCRSPYEMFGDEEVMCLNGNWTEPPQCKDSTGKCGPPPPIDNGDITSFPLSVYAPASSVEYQCQNLYQLEGNKRITCRNGQWSEPPKCLHPCVISREIMENYNIALRWTAKQKLYSRTGESVEFVCKRGYRLSSRSHTLRTTCWDGKLEYPTCAKR
partner: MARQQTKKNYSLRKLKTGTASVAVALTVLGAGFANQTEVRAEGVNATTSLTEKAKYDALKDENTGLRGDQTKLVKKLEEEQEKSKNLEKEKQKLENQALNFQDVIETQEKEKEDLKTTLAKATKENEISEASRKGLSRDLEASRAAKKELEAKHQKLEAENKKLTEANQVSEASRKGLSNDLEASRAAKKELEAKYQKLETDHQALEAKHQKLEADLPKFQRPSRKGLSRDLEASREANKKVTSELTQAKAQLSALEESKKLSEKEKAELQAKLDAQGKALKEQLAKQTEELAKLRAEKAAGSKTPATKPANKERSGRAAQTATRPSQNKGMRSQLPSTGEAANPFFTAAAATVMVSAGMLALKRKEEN

Variants of: B1
Conditions: with mx_strp9 ennX

Variant	effect of a mutation on the interaction
Y402H	decreasing interaction strength
